# In patent US12692524B2, “Sialyltransferases and their use in producing sialylated oligosaccharides” (Chr. Hansen A/S, priority 2017, dated 2026):
# B1: SiaT18: sialyltransferase of Photobacterium leiognathi JT-SHIZ-119, acc. AB500947, SEQ ID NO: 28 (protein, listed as Photobacterium leiognathi)
# chain: MCNDNQNTVDVVVSTVNDNVIENNTYQVKPIDTPTTFDSYSWIQTCGTPILKDDEKYSLSFDFVAPELDQDEKFCFEFTGDVDGKRYVTQTNLTVVAPTLEVYVDHASLPSLQQLMKIIQQKNEYSQNERFISWGRIGLTEDNAEKLNAHIYPLAGNNTSQELVDAVIDYADSKNRLNLELNTNTAHSFPNLAPILRIISSKSNILISNINLYDDGSAEYVNLYNWKDTEDKSVKLSDSFLVLKDYFNGISSEKPSGIYGRYNWHQLYNTSYYFLRKDYLTVEPQLHDLREYLGGSLKQMSWDGFSQLSKGDKELFLNIVGFDQEKLQQEYQQSELPNFVFTGTTTWAGGETKEYYAQQQVNVVNNAINETSPYYLGREHDLFFKGHPRGGIINDIILGSFNNMIDIPAKVSFEVLMMTGMLPDTVGGIASSLYFSIPAEKVSFIVFTSSDTITDREDALKSPLVQVMMTLGIVKEKDVLFWSDLPDCSSGVCIAQY
# Assays:
# [1] = In vitro sialylation of LNT by protein extracts, LST-a/-b quantified by LC-MS/MS; assay type: biochemical
# How it was run: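 E. coli BL21(DE3) crude extracts overexpressing sialyltransferases (IPTG 0.3 mM, 12–16 h at 30 °C) incubated 16 h with 5 mM LNT and 10 mM CMP-Neu5Ac in 50 mM Tris-HCl pH 7.5, 5 mM MgCl2. LST-a and LST-b measured by HILIC LC-MS/MS, MRM in ESI negative mode, against commercial standards.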
# [2] = In vivo screening in E. coli #1363/#1730 with lactose as acceptor, sialyllactose identified by TLC; assay type: cell-based, Escherichia coli BL21(DE3); conditions: 1.5 mM lactose, 72 to 96 hours, qualitative via TLC
# How it was run: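 E. coli BL21(DE3) #1363/#1730 expressing sialyltransferases were grown at 30 °C in mineral salts medium with 2% glucose and induced with 0.3 mM IPTG. After 1 h, 1.5 mM lactose was added, plus 1.5 mM sialic acid for #1730, and incubation ran 72–96 h. Cell lysates were analysed by silica TLC with thymol staining.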
# [3] = In vitro kinetics (Km, Vmax), donor substrate CMP-Neu5Ac; assay type: biochemical; conditions: 30° C., pH7.5, protein extract
# Procedure: (§1) To rank the best performing sialyltransferases, their Km values for donor and acceptor substrates were determined in vitro. Escherichia coli BL21(DE3) strain #287 was used for overproduction of the enzymes. Cells were incubated in 100 ml 2YT medium in shaking flasks supplemented with 100 μg m^−1 ampicillin at 30° C. until an OD600 of 0.3 was reached. Then, 0.3 mM IPTG was added and the incubation was continued for 12 to 16 hours. Cells were harvested by centrifugation and mechanically disrupted in a defined volume of 50 mM Tris-HCl pH7.5 using glass beads. The protein extract was kept on ice until the assay started. The in vitro assay was carried out in a total volume of 50 μl including 50 mM Tris-HCl pH7.5, 5 mM MgCl2 and varying concentrations of CMP-Neu5Ac (0.05-30 mM) as well as of lactose or LNT (0.1-50 mM). The assay started with the addition of 35 to 750 μg protein extract. After 1 to 10 minutes of incubation at 30° C., the assay was inactivated at 95° C. for 5 minutes. Product formation was determined by mass spectrometry. Data were evaluated using the enzyme kinetic module of SigmaPlot v12.5 to calculate Km and Vmax.
# (§2) Their kinetic parameters for CMP-Neu5Ac and LNT as well as lactose are depicted in Table 6.
# [4] = In vitro kinetics (Km, Vmax), acceptor substrate lactose; assay type: biochemical; conditions: 30° C., pH7.5, protein extract
# Procedure: as §1, §2
# [5] = In vitro kinetics (Km, Vmax), acceptor substrate LNT; assay type: biochemical; conditions: 30° C., pH7.5, protein extract
# Procedure: as §1, §2
molecule,measurement,setting,value
B1,Relative efficacy of sialyltransferases regarding in-vitro production of sialyllacto-N-tetraoses: LST-b,"[1]; 5 mM LNT, 10 mM CMP-Neu5Ac, 16 hours, LC-MS/MS, relative quantity, n.d.: not detectable",303
same,Ranking in the screening for sialylation of LNT,[1]; in words,"sialylate LNT most efficiently among the tested α-2,6-sialyltransferases"
same,Production of sialyllactose in-vivo,[2],6′-SL
same,Km,[3],2.8 mM
same,Vmax CMP-Neu5Ac,[3],0.21 µmol/min
same,Km,[4],7.6 mM
same,Vmax Lactose,[4],0.21 µmol/min
same,Km,[5],5.2 mM
same,Vmax LNT,[5],0.14 µmol/min
